Paper PMC4161027 (2014)

Molecular target: F-actin (polymerized rabbit muscle G-actin) (Oryctolagus cuniculus (Rabbit), UniProt P68135)
Assay: F-actin co-sedimentation

B1: GST-tagged ENTH domain of rat epsin 1 (protein)
chain: MSTSSLRRQMKNIVHNYSEAEIKVREATSNDPWGPSSSLMSEIADLTYNVVAFSEIMSMIWKRLNDHGKNWRHVYKAMTLMEYLIKTGSERVSQQCKENMYAVQTLKDFQYVDRDGKDQGVNVREKAKQLVALLRDEDRLREER
- binding result: no binding
